Measurements from article PMC5717197, “Mechanistic insight into TRIP13-catalyzed Mad2 structural transition and spindle checkpoint silencing” (Nature Communications, 2017).
Changes are numbered by the printed parent chain. Blank lines part the entries; values can stand above or below the binder they belong to.

What was measured:
[1] = target: T1, His6-Mad2 (containing the C79S and C106S mutations) (human, UniProt Q13257 1-205, C79S | C106S); experiment: pull-down; Mad2 dissociation assay: MBP1 or Cdc20N coupled to SulfoLink resin, loaded with His6-Mad2 (0.5 mg/ml), washed, then TRIP13 and ΔN35-p31comet with 1 mM ATP for 30-60 min; Reaction Buffer (25 mM Tris pH 7.5, 200 mM NaCl, 10 mM MgCl2, 1 mM DTT, 5% glycerol, 0.05% Tween), room temperature; bound proteins by SDS-PAGE and Coomassie; conditions: both partners purified
T1 construct: Mad2, human; C79S and C106S to avoid disulfide formation in vitro; The His6 tag was not cleaved; also called C-Mad2; source: E. coli BL21 (DE3), purified (Ni-NTA, Resource Q, Superdex 200 Increase); not shown: His6, N-terminal, kept

[2] = target: the molecule itself; experiment: SEC; gel filtration column in the presence of ATP

T1 sequence (Q13257 whole entry C79S/C106S): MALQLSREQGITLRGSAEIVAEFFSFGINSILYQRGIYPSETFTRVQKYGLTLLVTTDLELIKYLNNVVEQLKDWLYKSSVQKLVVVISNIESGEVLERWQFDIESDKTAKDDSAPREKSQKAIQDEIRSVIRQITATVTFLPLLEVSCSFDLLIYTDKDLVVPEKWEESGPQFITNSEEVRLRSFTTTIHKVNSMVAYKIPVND

binding result [1]: binds
B1: Cdc20N-His6 (residues 1-170 of human Cdc20) (domain or fragment, UniProt Q12834 1-170, looked up)
chain: MAQFAFESDLHSLLQLDAPIPNAPPARWQRKAKEAAGPAPSPMRAANRSHSAGRTPGRTPGKSSSKVQTTPSKPGGDRYIPHRSAAQMEVASFLLSKENQPENSQTPTKKEHQKAWALNLNGFDVEEAKILRLSGKPQNAPEGYQNRLKVLYSQKATPGSSRKTCRYIPS
notes: Cdc20, human, residues 1-170; Coupled to SulfoLink Coupling Resin in the bead assays; also called Cdc20 N-terminal 170-residue fragment; source: E. coli BL21 (DE3), purified from 8 M urea (Ni-NTA), dialysed

B2: TRIP13 wild type (enzyme, human, UniProt Q15645 1-432, looked up)
chain: MDEAVGDLKQALPCVAESPTVHVEVHQRGSSTAKKEDINLSVRKLLNRHNIVFGDYTWTEFDEPFLTRNVQSVSIIDTELKVKDSQPIDLSACTVALHIFQLNEDGPSSENLEEETENIIAANHWVLPAAEFHGLWDSLVYDVEVKSHLLDYVMTTLLFSDKNVNSNLITWNRVVLLHGPPGTGKTSLCKALAQKLTIRLSSRYRYGQLIEINSHSLFSKWFSESGKLVTKMFQKIQDLIDDKDALVFVLIDEVESLTAARNACRAGTEPSDAIRVVNAVLTQIDQIKRHSNVVILTTSNITEKIDVAFVDRADIKQYIGPPSAAAIFKIYLSCLEELMKCQIIYPRQQLLTLRELEMIGFIENNVSKLSLLLNDISRKSEGLSGRVLRKLPFLAHALYVQAPTVTIEGFLQALSLAVDKQFEERKKLAAYI
notes: TRIP13, human; its own AUC and gel filtration show no discrete oligomer; also called TRIP13 WT; source: E. coli BL21 (DE3), purified (Ni-NTA, TEV, Resource Q, Superdex 200); not shown: His6, N-terminal, cleaved
binding result [2]: binds

B3: TRIP13 G320A (enzyme, human, UniProt Q15645 1-432, looked up)
chain: B2 chain with G320A
notes: TRIP13, human; source: E. coli BL21 (DE3), purified (Ni-NTA, TEV, Resource Q, Superdex 200); not shown: His6, N-terminal, cleaved
binding result [2]: binds

binding result [1]: binds
B4: MBP1 peptide (peptide)
peptide: SWYSYPPPQRAVC
notes: Coupled to SulfoLink Coupling Resin in the bead assays; source: synthetic peptide (Protein Chemistry Technology Core, UTSW)
